Measurements from the supplement of paper PMC9732359.
± gives the uncertainty stated by the source.

Test: protein stability index of a GFP-peptide fusion (yeast GPS) (PSI 1-4); higher = more stable; sorted into four equal gates, so the index is relative within each strain
Outline: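 Sequencing reads from sorted gates were used to score each peptide. The library consisted of tiled 17-residue yeast protein peptides fused downstream of GFP on a Cherry-expressing plasmid, pooled and carried in yeast. Mid-log cultures in leucine-free medium were split into four equal gates by GFP/Cherry ratio, and each gate's plasmids were PCR-amplified and Illumina-sequenced. The protein stability index adds up, over all gates, the read frequency multiplied by the gate number.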

Sequence | protein stability index (doa10∆) | protein stability index (pdr5∆) | protein stability index (san1∆) | protein stability index (ubr1∆)
GYCDDIAAMVAQKCGWT [SIR2] | 1.76 ± 0.11 | 1.9 ± 0.094 | 2.44 ± 0.16 | 1.74 ± 0.052
GYDDFQEEGSFEFGNMK [FAS2] | 3.48 ± 0.14 | 3.26 ± 0.18 | 2.6 ± 0.28 | 3.33 ± 0.08
GYDINYISKIGEKIDSN [SWI1] | 3.2 ± 0.11 | 2.98 ± 0.085 | 3.23 ± 0.084 | 2.91 ± 0.11
GYLFKVSALDKCIKYSE [ECM29] | 3.08 ± 0.13 | 2.11 ± 0.09 | 1.95 ± 0.11 | 2 ± 0.074
GYLITPPKHTELLLTTL [SSN2] | 1.85 ± 0.062 | 1.86 ± 0.052 | 1.54 ± 0.11 | 1.54 ± 0.031
GYMQKPVYATIGVETGS [PRP28] | 1.47 ± 0.25 | 2.23 ± 0.21 | 1.68 ± 0.19 | 1.77 ± 0.19
HADKDTFSSSISTYIST [POP8] | 2.61 ± 0.045 | 2.58 ± 0.037 | 2.41 ± 0.048 | 2.69 ± 0.046
HAQSKREGRHSGYGKRK [RPL19A] | 2.8 ± 0.086 | 2.9 ± 0.08 | 2.85 ± 0.05 | 2.96 ± 0.042
HARARGPRAVLTRQPTE [RET1] | 3.28 ± 0.11 | 3.31 ± 0.068 | 3.08 ± 0.065 | 3.26 ± 0.06
HARGGGAISAVAATNTP [SRP54] | 1.69 ± 0.12 | 2.35 ± 0.12 | 3.07 ± 0.12 | 2.3 ± 0.12
HCDKCSVVLTLQAFGES [RPB3] | 3.1 ± 0.15 | 3.19 ± 0.14 | 2.47 ± 0.19 | 2.6 ± 0.17
HDIIEGINAGEIEIPEN [RPL12A] | 2.75 ± 0.071 | 2.52 ± 0.072 | 2.5 ± 0.077 | 2.4 ± 0.06
HDISRYVRAKFLDYTTD [PRP8] | 2.23 ± 0.066 | 1.99 ± 0.088 | 1.83 ± 0.12 | 2.54 ± 0.089
HDNHGNKLGNKRLTEDE [CDC53] | 2.51 ± 0.091 | 2.84 ± 0.069 | 2.37 ± 0.052 | 3.17 ± 0.06
HEEDQKTNIIEKAMDYA [RPN12] | 2.52 ± 0.087 | 2.75 ± 0.078 | 2.37 ± 0.084 | 3.02 ± 0.096
HEIITVGPHFKQANNFL [RPL7A] | 2.45 ± 0.062 | 2.7 ± 0.069 | 2.98 ± 0.061 | 2.54 ± 0.053
HEVEEILNELQPNARAL [SMC1] | 3.09 ± 0.13 | 3.4 ± 0.12 | 3.1 ± 0.099 | 3.44 ± 0.069
HFKKPDITVHGEQIIVH [RRP45] | 1.43 ± 0.14 | 1.37 ± 0.23 | – | 1.4 ± 0.13
HGILDDLETSLSQSSSY [MED2] | 2.98 ± 0.083 | 3.33 ± 0.1 | 3.12 ± 0.099 | 3.29 ± 0.14
HGSIIILGMLSLADNEI [YCS4] | 1.99 ± 0.069 | 2.04 ± 0.069 | 2.05 ± 0.1 | 2.25 ± 0.075
HGTYFLDNMTYSSVAGT [RRP4] | 2.21 ± 0.051 | 2.3 ± 0.043 | 2.45 ± 0.062 | 1.72 ± 0.034
HGVLQGTSQNYGTATAD [MED1] | 3.2 ± 0.091 | 3.13 ± 0.076 | 2.96 ± 0.078 | 3.14 ± 0.052
HHSWSQSDLEIITQYVF [ARP9] | 2.29 ± 0.051 | 2.82 ± 0.056 | 2.73 ± 0.056 | 3.08 ± 0.044
HIEGVVILKKNPDYREE [RPN1] | 2.89 ± 0.086 | 3.07 ± 0.096 | 3.05 ± 0.079 | 3.07 ± 0.066
HIKFSAGTEANAVSFDT [SRB4] | 1.98 ± 0.068 | 2.16 ± 0.055 | 2.66 ± 0.052 | 2.21 ± 0.04

Sequence | protein stability index (doa10∆) | protein stability index (pdr5∆) | protein stability index (san1∆) | protein stability index (ubr1∆)
HIMEPCIECQPKAMTDT [HRT1] | 3.13 ± 0.13 | 3.25 ± 0.091 | 2.94 ± 0.11 | 3.29 ± 0.077
HKMGVERSSKRLAKKPS [SIR3] | 3.33 ± 0.064 | 3.27 ± 0.067 | 3.24 ± 0.043 | 3.15 ± 0.062
HKPNEGRTPNISNGTIN [SIR4] | 2.92 ± 0.071 | 2.9 ± 0.046 | 2.99 ± 0.056 | 3.07 ± 0.048
HLEALQPLFSTVPEYLK [PGD1] | 1.51 ± 0.039 | 1.69 ± 0.045 | 1.66 ± 0.093 | 2.12 ± 0.066
HLIFSNARIYNTEGSVV [SNF2] | 3 ± 0.12 | 3.39 ± 0.18 | 2.49 ± 0.19 | 3.18 ± 0.085
HLKILASSNFPFLNETK [RPC82] | 2.52 ± 0.055 | 2.61 ± 0.064 | 2.51 ± 0.06 | 2.62 ± 0.045
HLLPAFLKVKGLVKQHL [RET1] | 3.2 ± 0.22 | 3.8 ± 0.2 | – | –
HLRKLLDGELDFDDFLK [RET1] | 3.04 ± 0.16 | 2.95 ± 0.1 | 2.81 ± 0.12 | 2.99 ± 0.092
HLRVRVHPFHVLRINKM [RPL10] | 1.12 ± 0.09 | 1.21 ± 0.072 | 1.2 ± 0.087 | 1.27 ± 0.08
HLVWMKGTNDEGTSISV [YCS4] | 1.84 ± 0.11 | 2.23 ± 0.086 | 1.9 ± 0.18 | 2.2 ± 0.17
HNKLIQFGNACISLSGV [SSN2] | 2.45 ± 0.11 | 2.84 ± 0.14 | 2.73 ± 0.075 | 2.67 ± 0.13
HNMKAYYKKFLIEPLPT [BRR2] | 1.26 ± 0.055 | 1.58 ± 0.07 | 1.18 ± 0.16 | 1.44 ± 0.084
HPAHVMWSVARAGQRGY [RPL3] | 1.68 ± 0.2 | 1.83 ± 0.22 | 1.5 ± 0.13 | 1.24 ± 0.12
HPIRVLMASVILDSLPS [YDL116W/NUP84] | 1.7 ± 0.051 | 1.52 ± 0.042 | 1.62 ± 0.056 | 1.62 ± 0.048
HQGSGGSVMSASVEIVF [SMC3] | 2.05 ± 0.11 | 2.56 ± 0.081 | 2.4 ± 0.082 | 2.26 ± 0.091
HRTIVIRRAYLHYIPKY [RPS11A] | 1.87 ± 0.048 | 1.55 ± 0.042 | 1.84 ± 0.07 | 1.74 ± 0.031
HTEDEQIEKKKICRGRM [SIR4] | 3.52 ± 0.17 | 3.38 ± 0.12 | 3.48 ± 0.13 | 3.16 ± 0.083
HTKSDERSELLRLFNAP [SNF2] | 2.83 ± 0.06 | 2.72 ± 0.065 | 2.78 ± 0.049 | 3.04 ± 0.06
HTLMSFAGEAGDTVQFA [PRE1] | 3.01 ± 0.11 | 3.3 ± 0.15 | 2.95 ± 0.095 | 3.22 ± 0.12
HVQFRLGNVDAFQLADG [PRP8] | 3.28 ± 0.11 | 2.79 ± 0.084 | 2.47 ± 0.11 | 1.61 ± 0.046
HWMGSSVSGSPRPSYSS [YMR129W/POM152] | 2.98 ± 0.088 | 3.11 ± 0.089 | 2.74 ± 0.07 | 2.87 ± 0.084
HYMVHEALNLLKFFLVD [LIN1] | 2.19 ± 0.053 | 1.7 ± 0.043 | 1.79 ± 0.081 | 2.11 ± 0.058
HYNDSQQLRTWKRQISY [SRB8] | 3.25 ± 0.085 | 3.39 ± 0.14 | 3.21 ± 0.09 | 3.32 ± 0.19
IAACTGVPDDKWEQTYK [FAS1] | 1.63 ± 0.15 | 1.21 ± 0.23 | – | 1.31 ± 0.29
IAATAVASLVLARGHRV [RPL4A] | 2.6 ± 0.22 | 1.93 ± 0.19 | 2.08 ± 0.24 | 1.93 ± 0.09
